The results in this text go back to PMC10979099 (The Journal of Biological Chemistry, 2024).

In the test the target is Sra1 (human, UniProt Q7L576 1-1253). Description: reconstitution and co-purification.
Sequence of Sra1 (Q7L576 whole entry): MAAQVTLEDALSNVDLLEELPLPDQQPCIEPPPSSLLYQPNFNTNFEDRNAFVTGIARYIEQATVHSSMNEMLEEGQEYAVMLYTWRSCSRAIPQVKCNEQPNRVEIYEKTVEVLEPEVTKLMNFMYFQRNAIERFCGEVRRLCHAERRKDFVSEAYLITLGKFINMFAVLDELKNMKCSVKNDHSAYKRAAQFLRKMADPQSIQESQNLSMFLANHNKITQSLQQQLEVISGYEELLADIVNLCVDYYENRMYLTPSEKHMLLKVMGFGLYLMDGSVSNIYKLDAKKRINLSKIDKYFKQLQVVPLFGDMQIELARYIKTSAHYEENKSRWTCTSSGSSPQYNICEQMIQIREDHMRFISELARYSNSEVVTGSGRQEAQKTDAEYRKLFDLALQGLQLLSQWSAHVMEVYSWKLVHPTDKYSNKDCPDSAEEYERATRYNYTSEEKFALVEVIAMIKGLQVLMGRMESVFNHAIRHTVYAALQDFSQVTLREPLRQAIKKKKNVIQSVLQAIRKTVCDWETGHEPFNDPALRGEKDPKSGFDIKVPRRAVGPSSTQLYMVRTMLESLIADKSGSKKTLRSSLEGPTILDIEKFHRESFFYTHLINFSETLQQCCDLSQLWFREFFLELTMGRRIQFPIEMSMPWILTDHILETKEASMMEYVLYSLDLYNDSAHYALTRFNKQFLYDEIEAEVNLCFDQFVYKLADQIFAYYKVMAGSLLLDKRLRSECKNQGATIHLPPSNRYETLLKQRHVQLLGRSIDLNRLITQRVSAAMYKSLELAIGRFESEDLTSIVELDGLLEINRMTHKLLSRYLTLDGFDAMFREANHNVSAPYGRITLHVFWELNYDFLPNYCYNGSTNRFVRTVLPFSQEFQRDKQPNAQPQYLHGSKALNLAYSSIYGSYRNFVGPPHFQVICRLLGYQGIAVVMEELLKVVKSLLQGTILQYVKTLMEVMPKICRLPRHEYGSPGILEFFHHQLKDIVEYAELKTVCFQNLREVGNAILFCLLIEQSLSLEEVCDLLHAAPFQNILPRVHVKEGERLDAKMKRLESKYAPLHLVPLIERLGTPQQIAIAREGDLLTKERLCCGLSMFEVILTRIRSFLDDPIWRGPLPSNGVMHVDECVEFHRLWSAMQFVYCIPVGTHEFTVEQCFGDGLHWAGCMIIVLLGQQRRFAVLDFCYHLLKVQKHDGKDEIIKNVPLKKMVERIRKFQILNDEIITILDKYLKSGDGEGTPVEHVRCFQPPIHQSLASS

B1: Nap1 (natural protein)
chain: MSRSVLQPSQQKLAEKLTILNDRGVGMLTRLYNIKKACGDPKAKPSYLIDKNLESAVKFIVRKFPAVETRNNNQQLAQLQKEKSEILKNLALYYFTFVDVMEFKDHVCELLNTIDVCQVFFDITVNFDLTKNYLDLIITYTTLMILLSRIEERKAIIGLYNYAHEMTHGASDREYPRLGQMIVDYENPLKKMMEEFVPHSKSLSDALISLQMVYPRRNLSADQWRNAQLLSLISAPSTMLNPAQSDTMPCEYLSLDAMEKWIIFGFILCHGILNTDATALNLWKLALQSSSCLSLFRDEVFHIHKAAEDLFVNIRGYNKRINDIRECKEAAVSHAGSMHRERRKFLRSALKELATVLSDQPGLLGPKALFVFMALSFARDEIIWLLRHADNMPKKSADDFIDKHIAELIFYMEELRAHVRKYGPVMQRYYVQYLSGFDAVVLNELVQNLSVCPEDESIIMSSFVNTMTSLSVKQVEDGEVFDFRGMRLDWFRLQAYTSVSKASLGLADHRELGKMMNTIIFHTKMVDSLVEMLVETSDLSIFCFYSRAFEKMFQQCLELPSQSRYSIAFPLLCTHFMSCTHELCPEERHHIGDRSLSLCNMFLDEMAKQARNLITDICTEQCTLSDQLLPKHCAKTISQAVNKKSKKQTGKKGEPEREKPGVESMRKNRLVVTNLDKLHTALSELCFSINYVPNMVVWEHTFTPREYLTSHLEIRFTKSIVGMTMYNQATQEIAKPSELLTSVRAYMTVLQSIENYVQIDITRVFNNVLLQQTQHLDSHGEPTITSLYTNWYLETLLRQVSNGHIAYFPAMKAFVNLPTENELTFNAEEYSDISEMRSLSELLGPYGMKFLSESLMWHISSQVAELKKLVVENVDVLTQMRTSFDKPDQMAALFKRLSSVDSVLKRMTIIGVILSFRSLAQEALRDVLSYHIPFLVSSIEDFKDHIPRETDMKVAMNVYELSSAAGLPCEIDPALVVALSSQKSENISPEEEYKIACLLMVFVAVSLPTLASNVMSQYSPAIEGHCNNIHCLAKAINQIAAALFTIHKGSIEDRLKEFLALASSSLLKIGQETDKTTTRNRESVYLLLDMIVQESPFLTMDLLESCFPYVLLRNAYHAVYKQSVTSSA
Take B1: the binding result is “binds”.
